Data published in paper PMC8163800, “Extreme parsimony in ATP consumption by 20S complexes in the global disassembly of single SNARE complexes” (Nature Communications, 2021).

B1: SNAP-tag-αSNAP labelled with BG-Alexa647 (natural protein, bovine, UniProt P81125 1-295, looked up)
chain: MDNSGKEAEAMALLAEAERKVKNSQSFFSGLFGGSSKIEEACEIYARAANMFKMAKNWSAAGSAFCQAAHVHLQLQSKHDAATCFVDAGNAFKKADPQEAINCLMRAIEIYTDMGRFTIAAKHHISIAEIYETELVDIEKAIAHYEQSADYYKGEESNSSANKCLLKVAGYAAQLEQYQKAIDIYEQVGTNAMDSPLLKYSAKDYFFKAALCHFCIDMLNAKLAVQKYEELFPAFSDSRECKRIKKLLEAHEEQNVDSYTEAVKEYDSISRLDQWLTTMLLRIKKTIQGDEEDLR
modifications: BG-Alexa647 dye on the SNAP tag
notes: alpha-soluble NSF attachment protein (αSNAP), bovine; also called SNAP-tag-fused αSNAPs; Alexa647-labeled αSNAP; source: expressed in LB medium with IPTG, purified (Ni-NTA, Superdex 200); not shown: SNAP tag (GGSGGSG linker), N-terminal, kept
B2: NSF-SNAP tag (wild-type NSF with a C-terminal SNAP tag), labelled hexamer (enzyme, Chinese hamster)
chain: MAGRSMQAARCPTDELSLSNCAVVSEKDYQSGQHVIVRTSPNHKYIFTLRTHPSVVPGSVAFSLPQRKWAGLSIGQEIEVALYSFDKAKQCIGTMTIEIDFLQKKNIDSNPYDTDKMAAEFIQQFNNQAFSVGQQLVFSFNDKLFGLLVKDIEAMDPSILKGEPASGKRQKIEVGLVVGNSQVAFEKAENSSLNLIGKAKTKENRQSIINPDWNFEKMGIGGLDKEFSDIFRRAFASRVFPPEIVEQMGCKHVKGILLYGPPGCGKTLLARQIGKMLNAREPKVVNGPEILNKYVGESEANIRKLFADAEEEQRRLGANSGLHIIIFDEIDAICKQRGSMAGSTGVHDTVVNQLLSKIDGVEQLNNILVIGMTNRPDLIDEALLRPGRLEVKMEIGLPDEKGRLQILHIHTARMRGHQLLSADVDIKELAVETKNFSGAELEGLVRAAQSTAMNRHIKASTKVEVDMEKAESLQVTRGDFLASLENDIKPAFGTNQEDYASYIMNGIIKWGDPVTRVLDDGELLVQQTKNSDRTPLVSVLLEGPPHSGKTALAAKIAEESNFPFIKICSPDKMIGFSETAKCQAMKKIFDDAYKSQLSCVVVDDIERLLDYVPIGPRFSNLVLQALLVLLKKAPPQGRKLLIIGTTSRKDVLQEMEMLNAFSTTIHVPNIATGEQLLEALELLGNFKDKERTTIAQQVKGKKVWIGIKKLLMLIEMSLQMDPEYRVRKFLALLREEGASPLDFD
modifications: BG-Alexa647 or BG-DY549 dye on the SNAP tag
notes: N-ethylmaleimide sensitive factor (NSF), Chinese hamster, wild type; also called DY549-labeled NSF; SNAP-tag-labeled WT; source: expressed from pET28a in autoinduction LB medium, purified (Ni-NTA, Superdex 200); not shown: SNAP tag (GGSG linker), C-terminal, kept

Columns and labels:
[1] = molecular target: B2; assay: single-molecule fluorescence co-localisation with counting of photobleaching steps (TIRF); SNARE vesicles (1:30,000 protein/lipid) held on NeutrAvidin; 100 nM SNAP-tag-αSNAP, then 1 nM Dylight549-labelled NSF with 1 mM ATP and 1 mM EDTA; H50N50 buffer; conditions: both partners purified
[2] = molecular target: the molecule itself; assay: SEC; Superdex 200 16/600 in NSF buffer (50 mM HEPES pH 7.4, 150 mM NaCl, 1 mM DTT, 1 mM ATP, 1 mM EDTA, 10% glycerol)

Row | binding result [1] | Binder | stoichiometry N [2]
1 | binds | B1 | 
2 |  | B2 | 6
